Assay results: publication PMC9771711 (Science (New York, N.Y.), 2021)

Molecular target: CCHFV Gc^1579 (Crimean-Congo hemorrhagic fever virus, …)
Assay: BLI

B1: ADI-36121 (as used in BLI) (antibody, V domains shown)
VH: EVQLLESGGDLVQPGGSLRLSCAASGFTFSSYVMSWVRQAPGKGLEWVSVIYRGGSTKYADSVKGRFTISRDDSKNTLYLQMNSLRVEDTAVYYCVKDPKAWLEPEWWGQGTLVTVSS
VL: DIQMTQSPSSLSASVGDRVTITCRASQSISKYLSWFQQKPGKAPNLLIYAASYLQSGVPSRFSGSGSGTDFTLTISSLQPEDFATYYCQQSYSNPRTFGQGTKVEIK
binding result: binds
